# Laboratory results: US20150175687A1
# What was measured:
# [1] = target: recombinant mature myostatin (human) (UniProt O14793)
# [2] = target: recombinant mature myostatin (human) (UniProt O14793); experiment: BIAcore, myostatin immobilized
# Sequence of recombinant mature myostatin (human) (O14793 267-375): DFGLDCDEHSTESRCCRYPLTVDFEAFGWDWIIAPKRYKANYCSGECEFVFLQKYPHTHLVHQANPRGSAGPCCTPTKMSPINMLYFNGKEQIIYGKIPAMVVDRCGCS
binder,measurement,setting,value
recombinant human activin receptor IIB/Fc chimera (Fc fusion) SGRGEAETRECIYYNANWELERTNQSGLERCEGEQDKRLHCYASWRNSSGTIELVKKGCWLDDFNCYDRQECVATEENPQVYFCCCEGNFCNERFTHLPEAGGPEVTYEPPPTAPT,"IC50 (nM), myostatin-induced luciferase, C2C12 pMARE-luc",[1],83 nM
same,Kd,[2],7 nM
